The source of these data is paper PMC12560621, “β-Branching in the biosynthesis of bongkrekic acid: a complex affair” (RSC Advances, 2025).

For data set [1], the target named is BonA_ACP1a (Burkholderia gladioli pv. cocovenenans).
Data set [2] addresses BonH (Burkholderia gladioli pv. cocovenenans). Nature of the data set: SEC; analytical size exclusion chromatography of the purified protein in solution; conditions in the supplementary information.
In data set [3] the target is BonA_ACP2a (Burkholderia gladioli pv. cocovenenans).
Data set [4] concerns the molecule itself. The experiment in a line: SEC; analytical size exclusion chromatography of the purified protein in solution; conditions in the supplementary information.

BonH (enzyme): the BonH-catalysed conversion of HMG-BonA ACP1a to the MG-ACP product, by ESMS in data set [1] was 15%. In data set [2], the stoichiometry N was 3.

In the case of BonI (enzyme), in data set [1], the BonI-catalysed conversion (with BonH) of HMG-BonA ACP1a to the endo-β-methyl-ACP product, by ESMS stood at 15%. Moreover, the BonI-catalysed decarboxylation of MG-BonA ACP2a (made by BonH from HMG-BonA ACP2a) to endo-β-methyl-BonA ACP2a, by ESMS and Ppant ejection in data set [3] came out at 50%.

B1: BonI (enzyme)
chain: MSRPAHFHGSATEMSERVVHLAELEPGIVRITLEDRTHKNAFSDRLLNGIVEAFAEVAANPSWKAVILTGYDTYFCTGGTQDMLLKLSKGEGRFTDFPIYNLPLTCEIPVIAAMQGHAVGGGLALGLFADFVVLSRESVYTANFMKYGFTPGFGSTLVMREKLGLPLAQALLMTAANYRGDELARHGIAFPVLPRAEVAAHALDIARQLADKPRHSLVTLKAHLNAPLRAMLPEVTAREVEMHERTFPHPEVQQRIRALFGS
On to B1, for which the “stoichiometry N” value in data set [4] worked out at 3.

In general, stoichiometry N refers to a count of units in the complex or per binding partner.
